Experimental data taken from patent US20060046250A1 (SEOUL NATIONAL UNIVERSITY INDUSTRY FOUNDATION, published 2006).

Target: T1, GST-AIM3 fusion protein (human, UniProt O43324 1-174)
T1 construct: Immobilised on glutathione-sepharose beads; also called GST-fused AIM3; GST-fused AIM3 protein; not shown: glutathione S-transferase (GST) fusion partner from the Pharmacia system; The vector, the linker and the order of the fu
T1 sequence: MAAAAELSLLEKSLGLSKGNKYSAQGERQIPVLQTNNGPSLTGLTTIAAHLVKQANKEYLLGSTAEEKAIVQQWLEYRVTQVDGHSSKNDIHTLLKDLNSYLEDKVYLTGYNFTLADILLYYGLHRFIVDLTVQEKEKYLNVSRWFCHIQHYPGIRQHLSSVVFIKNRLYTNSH
Assay: GST pull-down of in vitro translated, radiolabelled fragment, autoradiography
From the text: First, AIM3 was expressed as GST fusion protein and purified according to the manufacturer's protocol (Pharmacia). Meanwhile, since it was difficult to synthesize the whole ATM due to its large size, the present inventors tested the interaction between the functional domain of ATM and AIM3. For this purpose, a fragment consisting of 612 amino acids, including the FAT domain of an ATM structure, was amplified by PCR with primers shown in SEQ ID NO: 12 and SEQ ID NO: 13. Also, a fragment (control group) consisting of 145 amino acids, including the C-terminal domain, was amplified by PCR with primers shown in SEQ ID NO: 14 and SEQ ID NO: 15. Then, the amplified PCR products were subdloned into pcDNA3.1 (Invitrogen), a vector suitable for in vitro transcription and […]. At this time, the protein was synthesized by in vitro translation in the presence of radioactive methionine. 10 μl of the synthesized TNT product was incubated with the GST- or GST-AIM3 fusion protein-immobilized glutathion-sepharose beads for 5 minutes. Then, the beads were washed six times with a binding buffer (PBS containing 0.2% sarcosine and 0.2% Triton X100), and dissolved in 10% SDS-PAGE. The binding of the GST-fused AIM3 to each domain was determined by autoradiography.

binding result: no binding
B1: ATM fragment consisting of 145 amino acids, including the C-terminal domain (other, UniProt Q13315 2912-3056, looked up)
chain: RDIVDGMGITGVEGVFRRCCEKTMEVMRNSQETLLTIVEVLLYDPLFDWTMNPLKALYLQQRPEDETELHPTLNADDQECKRNLSDIDQSFNKVAERVLMRLQEKLKGVEEGTVLSVGGQVNLLIQQAIDPKNLSRLFPGWKAWV
modifications: radioactive methionine (in vitro translated)
notes: domain: C-terminal domain; Made by in vitro transcription and translation from pcDNA3.1; Its limits are set only by the PCR primers; also called C-terminal domain of ATM; control group fragment
